Data reported in paper PMC5964570.

Molecular target: Angiotensin I converting enzyme (ACE) from rabbit lung (rabbit) (UniProt P12822)
Sequence of UniProt P12822 (P12822 34-1310): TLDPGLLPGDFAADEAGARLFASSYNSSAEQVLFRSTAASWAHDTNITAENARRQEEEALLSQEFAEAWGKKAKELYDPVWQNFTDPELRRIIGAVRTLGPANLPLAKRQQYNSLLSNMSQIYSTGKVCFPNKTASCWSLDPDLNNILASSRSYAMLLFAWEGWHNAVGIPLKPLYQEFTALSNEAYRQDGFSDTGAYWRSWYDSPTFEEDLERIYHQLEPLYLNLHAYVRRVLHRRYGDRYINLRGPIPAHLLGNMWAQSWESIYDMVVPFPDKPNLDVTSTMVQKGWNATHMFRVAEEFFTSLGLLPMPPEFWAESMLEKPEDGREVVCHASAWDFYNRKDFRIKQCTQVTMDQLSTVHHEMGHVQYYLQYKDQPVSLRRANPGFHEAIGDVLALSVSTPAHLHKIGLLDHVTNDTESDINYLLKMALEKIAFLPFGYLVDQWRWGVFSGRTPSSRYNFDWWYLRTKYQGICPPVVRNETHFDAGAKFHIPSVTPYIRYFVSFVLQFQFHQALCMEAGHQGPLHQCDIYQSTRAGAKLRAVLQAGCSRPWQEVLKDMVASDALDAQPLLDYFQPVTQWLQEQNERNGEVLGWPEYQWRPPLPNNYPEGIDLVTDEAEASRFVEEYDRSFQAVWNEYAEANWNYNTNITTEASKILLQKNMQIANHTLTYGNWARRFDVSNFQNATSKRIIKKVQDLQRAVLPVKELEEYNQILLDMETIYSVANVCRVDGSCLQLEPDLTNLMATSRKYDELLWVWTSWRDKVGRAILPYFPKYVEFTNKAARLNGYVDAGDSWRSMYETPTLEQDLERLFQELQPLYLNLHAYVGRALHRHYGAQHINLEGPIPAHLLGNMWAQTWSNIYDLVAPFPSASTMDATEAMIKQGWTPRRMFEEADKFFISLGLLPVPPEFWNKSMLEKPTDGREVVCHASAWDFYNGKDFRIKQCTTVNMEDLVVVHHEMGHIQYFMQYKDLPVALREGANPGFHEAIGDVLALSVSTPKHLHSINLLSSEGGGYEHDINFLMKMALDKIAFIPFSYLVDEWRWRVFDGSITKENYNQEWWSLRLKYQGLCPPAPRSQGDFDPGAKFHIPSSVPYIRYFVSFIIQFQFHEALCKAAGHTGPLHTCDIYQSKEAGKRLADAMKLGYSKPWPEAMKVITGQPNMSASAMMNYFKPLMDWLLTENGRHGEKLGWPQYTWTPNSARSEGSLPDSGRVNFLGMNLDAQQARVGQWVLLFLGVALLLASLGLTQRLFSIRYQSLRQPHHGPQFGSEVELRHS

Substance | IC50 of inhibition of ACE activity (hippuric acid released from Hip-His-Leu, RP-HPLC; 50 mM HEPES, 360 mM NaCl, pH 8.3, 37°C) [μM]
Cys-Cys (peptide) | 4.37
Cys-Phe (peptide) | 13.8
Cys-Arg (peptide) | 476
